Experimental data published in patent US20140212406A1.

Assays:
fibrin = assay: binding of tPA variants to a solid-phase fibrin surface on PVC plates (3 independent experiments, 12 doses)
[1] = target: N-methyl-D-aspartate receptor on primary cultured mouse cortical neurons (mouse) (UniProt P35438); assay: cell-based or functional assay

Substance | Kd (fibrin) [nM] | neuronal death (LDH release, cortical neurons, 50 uM NMDA, 0.3 uM tPA) [1] [%] | potentiation of NMDAR-mediated excitotoxicity (LDH release, cortical neurons, 50 uM NMDA, 0.3 uM tPA) [1] [%]
rat tPA with complete deletion of its K2 domain (deletion of the amino acids 181 to 262), 6xHis-tagged (from UniProt P19637 33-212; P19637 295-559) (enzyme) | 0.82 | – | –
rat wild type tPA (Rattus norvegicus), 6xHis-tagged (from UniProt P19637 33-559) (enzyme) | – | 71 | 39
